From patent US20230265175A1 (Merck Sharp & Dohme, published 2023) come the findings set out here.

Assay [1] concerns the target T1, tau species in African Green Monkey (AGM) CSF (African Green Monkey).
T1 construct: also called Fresh African Green Monkey (AGM) CSF
Put plainly: competitive ELISA, fresh AGM CSF (75 µl of neat CSF); competitor biotinylated Ta1505-mIgG2a. The protocol:
Binding affinities of various anti-tau-pS413 antibodies described herein for endogenous tau species were determined in brain homogenates and CSF samples from AD patients and preclinical models. Briefly, samples were pre-incubated with different concentrations of various anti-tau-pS413 antibodies, or respective isotype controls. Following a one-hour pre-incubation period, the antigen-antibody (Ag-Ab) mixture was added to plates pre-coated with a total tau capture antibody (Innotest ELISA kit).
Tissue homogenates were prepared using 1% sarkosyl buffer with several high-speed centrifugation steps to enrich for insoluble proteins including tau.

The target in assay [2] is recombinant phosphorylated tau protein monomer (35 AWM). Put plainly: competitive ELISA, 35 AWM (1 ng); free tau-pS413 detected with biotinylated Ta1505-mIgG2a (competitor).

B1: HmzTa1505-hIgG4-S228P (antibody)
heavy: not shown
light: DIVMTQSPLSLPVTLGEPASISCRSSQNIVHSNANTYLEWYLQKPGQSPQLLIYTVSNRFSGVPDRFSGSGSGTDFTLKISRVEAEDLGVYYCFQGSHLPLTFGGGTKVEIKRTVAAPSVFIFPPSDEQLKSGTASVVCLLNNFYPREAKVQWKVDNALQSGNSQESVTEQDSKDSTYSLSSTLTLSKADYEKHKVYACEVTHQGLSSPVTKSFNRGEC
As usually defined, the EC50 is the concentration giving half of the maximal effect. As to B1, the EC50 in assay [1] came out at 2.08 nM; in assay [2], 6.73 nM.

B2: V8-AFM-hIgG1-LALA-YTE (antibody)
heavy: EVQLVESGGGLVQPGGSLRLSCAASGFTFSSFALNWVRQAPGKGLEWVGHIRSETNNYVTFYAASVKGRFTVSRDDSQNTAYLQMNSLKTEDTATYYCVRRGPRDSWFGYWGQGTLVTVSSASTKGPSVFPLAPSSKSTSGGTAALGCLVKDYFPEPVTVSWNSGALTSGVHTFPAVLQSSGLYSLSSVVTVPSSSLGTQTYICNVNHKPSNTKVDKKVEPKSCDKTHTCPPCPAPEAAGGPSVFLFPPKPKDTLYITREPEVTCVVVDVSHEDPEVKFNWYVDGVEVHNAKTKPREEQYNSTYRVVSVLTVLHQDWLNGKEYKCKVSNKALPAPIEKTISKAKGQPREPQVYTLPPSRDELTKNQVSLTCLVKGFYPSDIAVEWESNGQPENNYKTTPPVLDSDGSFFLYSKLTVDKSRWQQGNVFSCSVMHEALHNHYTQKSLSLSPGK
light: DIVMTQSPLSLPVTLGEPASISCRSSQKIVHRNANTYLEWYLQKPGQSPQLLIYTVSNRFSGVPDRFSGSGSGTDFTLKISRVEAEDLGVYYCFQGSYLPLTFGGGTKVEIKRTVAAPSVFIFPPSDEQLKSGTASVVCLLNNFYPREAKVQWKVDNALQSGNSQESVTEQDSKDSTYSLSSTLTLSKADYEKHKVYACEVTHQGLSSPVTKSFNRGEC
notes: also called V8-AFM-IgG1-LALA-YTE
B2: the EC50 in assay [1] turned out to be 0.008 nM; in assay [2], 0.055 nM.
